{
  "source": "paper doi:10.1101/2021.07.07.451439",
  "key": {"TCEAL4": {"biological_target": "TCEAL4 (UniProt Q96EI5)", "test": "GFP-NanoTrap IP, blot of lower MW TCEAL4", "conditions": "reference: wild type GFP-USP7; sites S18"}, "TRIM27": {"biological_target": "TRIM27 (UniProt P14373)", "test": "GFP-NanoTrap IP of GFP-USP7, immunoblot", "conditions": "reference: wild type GFP-USP7; sites S18"}},
  "data": [
    {"substance": "USP7 (from UniProt Q93009) S18A", "values": [
      {"measurement": "binding against the reference", "setting": "TCEAL4", "value": "stronger"},
      {"measurement": "binding against the reference", "setting": "TRIM27", "value": "stronger"}
    ]}
  ]
}
